Results reported in patent US20230111237A1 (CARLSBERG A S, published 2023).

T1: recombinant wild type Hordeum vulgare limit dextrinase (wt HvLD) (Hordeum vulgare)
T1 chain: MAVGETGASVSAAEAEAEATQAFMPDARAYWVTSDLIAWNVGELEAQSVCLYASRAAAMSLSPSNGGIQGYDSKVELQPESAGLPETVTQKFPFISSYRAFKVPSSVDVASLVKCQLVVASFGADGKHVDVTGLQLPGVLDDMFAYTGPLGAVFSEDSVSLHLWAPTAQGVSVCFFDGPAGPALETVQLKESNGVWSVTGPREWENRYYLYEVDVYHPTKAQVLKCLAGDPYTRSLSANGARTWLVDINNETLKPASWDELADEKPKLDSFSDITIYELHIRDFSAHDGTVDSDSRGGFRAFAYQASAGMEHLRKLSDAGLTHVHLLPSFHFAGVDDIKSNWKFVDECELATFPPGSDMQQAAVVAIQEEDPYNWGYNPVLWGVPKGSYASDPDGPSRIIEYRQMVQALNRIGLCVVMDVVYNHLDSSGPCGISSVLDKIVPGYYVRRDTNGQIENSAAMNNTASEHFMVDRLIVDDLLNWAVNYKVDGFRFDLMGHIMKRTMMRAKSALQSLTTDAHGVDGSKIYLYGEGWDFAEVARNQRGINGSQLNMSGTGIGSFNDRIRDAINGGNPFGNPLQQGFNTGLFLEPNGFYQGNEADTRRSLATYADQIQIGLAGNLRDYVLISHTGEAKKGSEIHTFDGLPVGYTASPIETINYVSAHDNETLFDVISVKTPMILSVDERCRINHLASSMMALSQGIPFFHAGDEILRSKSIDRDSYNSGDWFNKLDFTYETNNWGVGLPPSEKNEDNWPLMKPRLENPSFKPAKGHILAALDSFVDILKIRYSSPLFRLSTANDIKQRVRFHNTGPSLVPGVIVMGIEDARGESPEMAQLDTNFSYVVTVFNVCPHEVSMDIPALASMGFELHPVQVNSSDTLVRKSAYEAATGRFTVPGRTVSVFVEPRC


Target: T1, recombinant wild type Hordeum vulgare …
Experiment: cell-based or functional assay

IC50 (µM) of inhibition of HvLD activity (PullG6 assay, 1.5 µM HvLD) | Binder
1.56 µM | wild type Hordeum vulgare limit dextrinase inhibitor (wt HvLDI), recombinant (other) TLESVKDECQPGVDFPHNPLATCHTYVIKRVCGRGPSRPMLVKERCCRELAAVPDHCRCEALRILMDGVRTPEGRVVEGRLGDRRDCPREEQRAFAATLVTAAECNLSSVQEPGVRLVLLADG
15.3 µM | HvLDI mutant V66M, recombinant (other) TLESVKDECQPGVDFPHNPLATCHTYVIKRVCGRGPSRPMLMKERCCRELAAVPDHCRCEALRILMDGVRTPEGRVVEGRLGDRRDCPREEQRAFAATLVTAAECNLSSVQEPGVRLVLLADG

The remaining lines, values behind:

Binder | IC50 (µM) of inhibition of HvLD activity (PullG6 assay, 1.5 µM HvLD)
HvLDI mutant P60L, recombinant (other) TLESVKDECQPGVDFPHNPLATCHTYVIKRVCGRGLSRPMLVKERCCRELAAVPDHCRCEALRILMDGVRTPEGRVVEGRLGDRRDCPREEQRAFAATLVTAAECNLSSVQEPGVRLVLLADG | 13.2 µM
HvLDI mutant P60S, recombinant (other) TLESVKDECQPGVDFPHNPLATCHTYVIKRVCGRGSSRPMLVKERCCRELAAVPDHCRCEALRILMDGVRTPEGRVVEGRLGDRRDCPREEQRAFAATLVTAAECNLSSVQEPGVRLVLLADG | 10.1 µM
HvLDI mutant E68K, recombinant (other) TLESVKDECQPGVDFPHNPLATCHTYVIKRVCGRGPSRPMLVKKRCCRELAAVPDHCRCEALRILMDGVRTPEGRVVEGRLGDRRDCPREEQRAFAATLVTAAECNLSSVQEPGVRLVLLADG | 7.1 µM
